Test results taken from US20250127918A1, “SITE-SELECTIVE CONJUGATION OF A PHARMACEUTICAL AGENT TO AN ANTIBODY USING AN AFFINITY PEPTIDE” (priority 2023, published 2025).

Biological target: T1, Trastuzumab (Homo sapiens, UniProt P01857, D239E/L241M)
T1 construct: purchased Syd Labs Inc; MedChemExpress LLC; Bio X Cell
Test: Determination of the modification sites (Trypsin/Lys-C digest, nLC-MS/MS)
Format: biochemical
Conditions: Tmab, LC-MS/MS sequencing
Method: The modified trastuzumab (30 μg) from entry 6 of 5.2.1 was diluted to 36 μL using Tris buffer (50 mM, pH 8.0). PNGase F (New England BioLabs, 200 units) was added to the solution and incubated at 37° C. for 4 hours. The reaction solution was then brought to room temperature, and urea solution (6M in 50 mM Tris pH 8.0, 14 μL) and DTT solution (200 mM, 1.5 μL) were added and incubated at 37° C. for 1 hour. After that, iodoacetamide (800 mM, 1 μL) was added and incubated at room temperature for 30 minutes. The resulting solution was diluted 2-fold using Tris buffer (50 mM, pH 8.0), and then Trypsin/Lys-C mix (Promega, 0.2 μg/μL in solution, 6 μL) was added and incubated at 37° C. for 18 hours. The reaction solution was then purified by pipetting with Ziptip, lyophilized, and analyzed by nLC-MS/MS (using nLC-MS/MS method B). Obtained raw data were analyzed using Thermo Scientific FreeStyle™ 1.6. […]
The modified trastuzumab (30 μg) from entry 6 of 5.2.1 was diluted to 36 μL using Tris buffer (50 mM, pH 8.0). […] The reaction solution was then purified by pipetting with Ziptip, lyophilized, and analyzed by nLC-MS/MS (using nLC-MS/MS method B). Obtained raw data were analyzed using Thermo Scientific FreeStyle™ 1.6. […]

T1 sequence (P01857 with tags, fused parts or gaps isoform P01857-1 D239E/L241M, other chains not shown): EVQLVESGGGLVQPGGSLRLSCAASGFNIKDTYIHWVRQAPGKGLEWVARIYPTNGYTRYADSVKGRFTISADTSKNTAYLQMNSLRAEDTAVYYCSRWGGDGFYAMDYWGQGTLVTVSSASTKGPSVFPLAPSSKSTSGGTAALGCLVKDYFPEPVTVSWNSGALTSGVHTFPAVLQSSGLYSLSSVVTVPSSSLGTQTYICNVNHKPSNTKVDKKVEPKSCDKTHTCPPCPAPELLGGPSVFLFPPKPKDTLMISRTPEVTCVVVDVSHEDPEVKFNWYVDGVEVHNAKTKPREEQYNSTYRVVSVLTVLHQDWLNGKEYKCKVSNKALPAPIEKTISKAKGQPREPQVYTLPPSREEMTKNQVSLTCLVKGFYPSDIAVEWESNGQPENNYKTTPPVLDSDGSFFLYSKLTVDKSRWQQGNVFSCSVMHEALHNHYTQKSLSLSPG

Sequence: FNMQQQRRFYEALHD PNLNHcyEQRNAKIKSI RDD [PEL-21]
- Site of modification: Lys-317
